# Data: the supplement of paper PMC12764529
# ± gives the half width of the 95% confidence interval.
# Assay: folding stability dG unfold from chymotrypsin proteolysis; higher = more stable
# In short: (§1)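 Digests were run with trypsin and chymotrypsin at 11 concentrations in threefold dilutions, plus a no-protease condition, on designed mini-proteins in a PA-tagged cDNA display construct. The mini-proteins were under 80 residues, had no cysteine, and were kept only when AlphaFold2 dimer inter-PAE was above 15. After sequencing, Bayesian fitting of the counts gave K50, from which unfolding free energy was derived against a sequence-predicted unfolded-state K50 and a shared folded-state K50, per protease or combined.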
row,Sequence,folding stability dG unfold [kcal/mol]
1,SAGGSAGGSAGSLLTETSESVINDTKITHVLEIDPSSGALRLILETKHPDPGIVTVELLPSAGGSAGGSAGG [r17_242_JUSTAS],0.857 ± 0.061
2,SAGGSFGIEIEFHGNGFVIEMFNPETDTINTMRFKFDPDGQFTEMEMETIPIPPPPPPEKDENGKESAGGSA [r2_375_TrROS],3.16 ± 0.12
3,SMLNPDDPSVPERLVLVIPVPEEAVENGDFEVVRAKVEEAAEELEPLGWRVVSVEFDTETKEARLVLERPSA [r9_75_TrMRF],3.506 ± 0.021
4,SAKKIPLDDAKIRIKMESPNGMIMEFPIKNVQIDPKNGKLSFEFPMRIYNPDNGKERPMRMKIDEIVPVSAG [r14_825_TrROS],0.299 ± 0.25
5,SAGGSAGGSGSTVVEVEFPDARIVITVEPPGVLTVTVERPPFPVETVRLPDMTVEEAVAYALASAGGSAGGS [r20_8_JUSTAS],1.14 ± 0.098
6,SAGGSAGGSMKIPSDYTLTPIETKDNGASTVTLEKVTYPGPSLLATFLTPPDGTVTLLEVKPVSAGGSAGGS [r20_103_JUSTAS],1.24 ± 0.072
7,SAGGSAGGGPPLPPPVLVLPARVERVFYDPVTGELTVETVDFPVVIRPDGSVYLGDRWIPPELLSAGGSAGG [r6_514_TrMRF],1.85 ± 0.12
8,SEVKLEVEEEEDGTLRVRLEVKLTREDGREVTRELELELTIELPPVEFETEEERRAALERLLEELEKLLESA [r9_790_TrROS_Hall],3.89 ± 0.18
9,SAGGSAGGSAGPNNMYPYEITIEVRDDGKPVKIKIEMYMSPNGEPMPPEQIKNFAKELAKSAGGSAGGSAGG [r17_373_TrROS],0.444 ± 0.17
10,SAGGSAGGSAGGSLEAIRKAIEEAQKNGHTVPISVRHPNGKDFTFEIEIQVVKPPPDEKSAGGSAGGSAGGS [r10_573_TrROS],1.47 ± 0.066
11,SAGGSAKRYFIMIDIRYPGDGKEIYPLVIPIPPGEPISIEDILDEIGFPPENADNVDIEIHTFRAKSAGGSA [r15_665_TrROS],1.57 ± 0.14

# Assay: folding stability dG unfold from trypsin proteolysis; higher = more stable
# In short: as §1
row,Sequence,folding stability dG unfold [kcal/mol]
1,MVAVFEFTFKSEEELLEAAEEVARRLAAELGLPEEELEKIPIEVEVEEIGNEDGEKEYKLTIRFGFPEEFLS [r1_81_TrMRF],3.51 ± 0.13
2,SAGGSAGGSKIEIHVQVSPELSPEEALERIRREIEEALPEELKDISLDDIIITVYPSHPDVPLSAGGSAGGS [r12_384_TrMRF],1.09 ± 0.047
3,NKRIKIFIGGDDPSMAEQIQQWLQDNGYNVEVHVFTSPEDMKKAREWAEQNDIVIVIQVPPPPPKDPGDNNS [r1_497_TrROS],2.48 ± 0.12
4,SAGGSPNIKITSKEKEGSKLKYTIQTPDKTITIEYSEGKATFKFPDGSTKTLTGKGSLEKAIKEAVLSSAGG [r13_98_JUSTAS],0.936 ± 0.11
5,SAGGSAGGSAMSPTEAERARPVPVVKTETTVTLDPSGYRVETVTYDGGVTETVVTPLPPELASAGGSAGGSA [r18_192_JUSTAS],0.0994 ± 0.04
6,SAGGMPVTLEIVLPNLHDVLGPEFFDALKNITVPNGTPIKKITVKPIGDKTVILIEVDSPEDAKDILGSAGG [r13_269_TrMRF],1.44 ± 0.12
7,SAGGSAGGSAGGGRMLLTETETIFSPSGGESVVTRLVTVFRPPPPVFLPDPEGRWSELVSAGGSAGGSAGGS [r10_330_JUSTAS],0.999 ± 0.14
8,SMTLVLDVSPDKAYKFKIEYKTPDGKRLTVDADTTMEPDGTARVPLKIPDSSVPPGTPLEIEKVEVTPLLSA [r9_359_JUSTAS],-0.136 ± 0.085
9,SAGGSADPGKPIQIAIMIHIDPEPGRIEIPIYIMDDNRVRPVSIEFTPAGTLKIEVGNKEIEIPIKSAGGSA [r15_507_TrROS],2.46 ± 0.17
10,SAGGKVVVLTFPKDNPEEVREALAKLPNVVRVEVEKVNDRYLAVAELEGELAVFVSLPDGRYVLLVLGSAGG [r13_907_TrMRF],2.36 ± 0.091
11,SAGGKKPKVKKVKVKLTLVDPETGEEVEVEAELYELPDGYVVLTVRNKKTGKTYRFVFKDGKLYLEPVSAGG [r13_117_TrROS_Hall],2.88 ± 0.1
12,SAGGLIEKLKELGFEIVSVEEREETLPNGKKVRTVKITVKLPNGELVKIEVRVLPNGEVIIKIEVKKPSAGG [r13_818_TrROS_Hall],3.72 ± 0.15
13,SAGGAPVSVSTSTLPDGRTVTTTTYPSGSTTTTITDPVTGATATASSPGSGTTTFTDPATGATTVVGSAGGS [r16_91_JUSTAS],1.36 ± 0.053
14,SAGGSAGGSAGGKIYYLDKDLFVIDLPDPKTGKPIKIAIGGDPNRPDEILKLAKELAESSAGGSAGGSAGGS [r10_379_TrMRF],0.0383 ± 0.039
15,SAGGSAGGPNWVKFPIMFEMPIPVVPKMEKDPDGENRMEPVKPVRISIMIELTLPPDDLEDLIKSAGGSAGG [r6_120_TrROS],1.41 ± 0.083
16,SAGGSAGGSGSSTEVTTTTLPDTSYTTTNSTTTTFSPDQPEAVEAGLPVPSTVTTTTTTSPAGSAGGSAGGS [r20_138_JUSTAS],0.918 ± 0.056
17,SAGGSAGGSAGPTLTLELLFRNEDGSLYAVRVRYDLDTDKVEIEVRRLPPAEPVTVTVEDSAGGSAGGSAGG [r11_657_TrROS_Hall],2.8 ± 0.12
18,SQTIRLELKNPDGRKIRIEIPVQRNPGNGYYYVSVKIEYYDPNGKPKERPITAPFNSPEDAEDQAREALRSA [r9_337_TrROS],1.63 ± 0.12
19,SAGGSAGGRIPLEDIEIVEVSEETLPNTEKVYHVLVKLPEGYIEATFLPNTGLEEAVERLLALESAGGSAGG [r6_232_TrMRF],0.963 ± 0.053
20,SAGGIRIRFWVPSPEEAREMAETIAKWLMEEHPGAKIKIEPKKVEPNPDNGYYRVEVPIKIVLPGQPISAGG [r13_585_TrROS],1.36 ± 0.051
21,SAGGAFIKDFDVEEDPNGHRKFKFELPNGWKYDITIHPDFPQIEIKPIKPIEPPPIPADDPEQAEEQSAGGS [r16_482_TrROS],0.699 ± 0.11
